The assay has as its target Aβ1–42 fibrils (sonicated, immobilized) (human) (UniProt P05067). The experiment in a line: ELISA; sonicated Aβ1–42 fibrils coated on a high binding plate (50 μl of 2.5 μg/ml, carbonate buffer pH 9.6, overnight 8°C); blocked with 2% BSA in PBS pH 7.4; chaperones in 2% BSA up to 5,000 nM, 2 h at room temperature; detected with polyclonal anti-6×His; bound amount estimated from standard curves of chaperone deposited directly (0–100 nM).

Drawing on publication PMC9234269, this text covers stoichiometry N (Aβ1–42 monomers per chaperone molecule) for 3 substances.

Turning to “GroES (from UniProt P0A6F9 1-97) (natural protein)”, the stoichiometry N (Aβ1–42 monomers per chaperone molecule) is 1400.

On to Drosophila HSP10 (natural protein), for which the stoichiometry N (Aβ1–42 monomers per chaperone molecule) is 70.

For the substance “Human HSP10 (from UniProt P61604 3-102) (natural protein)”, the stoichiometry N (Aβ1–42 monomers per chaperone molecule) is 800.
